In article PMC8024709, “DNA ligase I fidelity mediates the mutagenic ligation of pol β oxidized and mismatch nucleotide insertion products in base excision repair”:

Tests used:
[1] = molecular target: LIG1 E346A/E592A (EE/AA) low-fidelity mutant (Homo sapiens, UniProt P18858 1-919, E346A;E592A); experiment: BLI; no Mg2+ or ATP listed in kinetics buffer; BLI (Octet QKe, streptavidin sensors, 40 nM DNA loaded, LIG1 10-2430 nM): Hepes pH 7.4, 200 mM NaCl, 0.5% BSA, 0.05% Tween 20, 20 °C; 1:1 binding model; conditions: protein: recombinant; tags: His-tag; label: 3'-biotin on downstream strand (S2); 1-nt gap opposite template T; 34-nt template (S7 equals S4 reversed to 5'-3') with 17-nt upstream and 16-nt downstream strands; outer ends blunt
[2] = molecular target: DNA ligase I (LIG1) wild-type (Homo sapiens, UniProt P18858 1-919); experiment: as above; conditions: protein: recombinant; tags: His-tag; label: 3'-biotin on downstream strand (S2); 1-nt gap opposite template T; 34-nt template (S7 equals S4 reversed to 5'-3') with 17-nt upstream and 16-nt downstream strands; outer ends blunt
Sequence of DNA ligase I (LIG1) wild-type (P18858 whole entry): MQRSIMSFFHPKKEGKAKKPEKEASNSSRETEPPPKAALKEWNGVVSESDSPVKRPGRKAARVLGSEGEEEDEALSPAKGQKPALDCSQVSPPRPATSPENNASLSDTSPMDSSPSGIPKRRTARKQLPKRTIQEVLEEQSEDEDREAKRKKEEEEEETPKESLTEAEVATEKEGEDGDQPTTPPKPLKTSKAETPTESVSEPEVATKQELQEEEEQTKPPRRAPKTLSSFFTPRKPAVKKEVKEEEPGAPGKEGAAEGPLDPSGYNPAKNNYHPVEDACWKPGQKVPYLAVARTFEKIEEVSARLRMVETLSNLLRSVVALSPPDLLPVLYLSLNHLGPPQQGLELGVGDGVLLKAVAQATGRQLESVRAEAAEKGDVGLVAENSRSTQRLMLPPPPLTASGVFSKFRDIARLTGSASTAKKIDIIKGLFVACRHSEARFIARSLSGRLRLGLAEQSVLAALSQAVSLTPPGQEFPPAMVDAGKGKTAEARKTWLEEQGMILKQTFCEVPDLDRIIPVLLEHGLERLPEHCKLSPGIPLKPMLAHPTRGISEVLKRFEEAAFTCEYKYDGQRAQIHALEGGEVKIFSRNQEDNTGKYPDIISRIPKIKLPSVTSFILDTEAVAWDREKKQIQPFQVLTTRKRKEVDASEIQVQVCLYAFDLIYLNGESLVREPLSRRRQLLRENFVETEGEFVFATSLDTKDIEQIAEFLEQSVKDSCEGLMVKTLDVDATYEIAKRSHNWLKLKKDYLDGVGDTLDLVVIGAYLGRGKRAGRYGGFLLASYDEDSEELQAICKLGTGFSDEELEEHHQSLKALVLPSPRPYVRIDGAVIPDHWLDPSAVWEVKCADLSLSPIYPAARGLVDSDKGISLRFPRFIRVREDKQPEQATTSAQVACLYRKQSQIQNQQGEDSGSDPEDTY

Sequence of LIG1 E346A/E592A (EE/AA) low-fidelity mutant (P18858 whole entry E346A/E592A): as the sequence (P18858 whole entry) above, with E346A, E592A counted along it

B1: one-nucleotide-gap DNA, template T (BLI) (dsDNA)
DNA 1: CATGGGCGGCATGAACC
DNA 2: GAGGCCCATCCTCACC
DNA 3: GGTGAGGATGGGCCTCTGGTTCATGCCGCCCATG
Which results are given for B1?
Kd [1]: ~20 nM; Kd [2]: ~83 nM
